{
  "source": "patent US20050164361A1",
  "about": "(published 2005)",
  "proteins": {"B1": {"name": "Aβ(10-21) (amino acid residues 10-21 of SEQ ID NO: 1) (peptide)", "peptide": "YEVHHQKLVFFA", "modifications": "not fully specified", "notes": "Segment of β-amyloid that assembles with itself into fibrils; Many copies stand in the assembly"}, "B2": {"name": "Aβ(10-21)H13Q (SEQ ID NO: 3) (peptide)", "peptide": "YEVQHQKLVFFA", "notes": "Aβ(10-21) with a modified amino acid residue 13 (H13Q)"}, "B3": {"name": "Aβ(16-22) (amino acid residues 16-22 of SEQ ID NO: 1), CH3CO-KLVFFAE-NH2 (peptide)", "peptide": "Ac-KLVFFAE-NH2", "modifications": "also: self-assembles into β-sheets, nanotubes", "notes": "Assembles with itself into β-sheets, a rectangular bilayer, helical ribbons and nanotubes"}},
  "key": {"[1]": {"target": "the molecule itself", "experiment": "fibril formation kinetics (self-assembly), FIG. 5A"}, "[2]": {"target": "the molecule itself", "experiment": "fibril formation kinetics (self-assembly), FIG. 5B"}, "[3]": {"target": "the molecule itself", "experiment": "self-assembly into a β-sheet bilayer, FIG. 8"}},
  "note": "Where no end group is shown, it is not given here.",
  "data": [
    {"protein": "B1", "values": [
      {"measurement": "binding result", "setting": "[1]", "value": "binds"}
    ]},
    {"protein": "B2", "values": [
      {"measurement": "binding result", "setting": "[2]", "value": "binds"}
    ]},
    {"protein": "B3", "values": [
      {"measurement": "binding result", "setting": "[3]", "value": "binds"}
    ]}
  ]
}
